Data published in patent US20190252037A1.
Read-outs that look alike come from different tables or passages of the source.

Legend:
[1] = target: heterotrimeric polymerase from influenza A/little yellow-shouldered bat/Guatemala/060/2010 (H17N10), wild type (Influenza A/little yellow-shouldered bat/Guatemala/060/2010 (H17N10))
[2] = target: 2-repeats (14 amino acids) Ser-5 phosphorylated CTD peptide, fluorescently labelled with FAM at the N-terminal end
[3] = target: 4-repeats (28 amino acids) Ser-5 phosphorylated CTD peptide, fluorescently labelled with FAM at the N-terminal end
[4] = target: 4-repeats (28 amino acids) Ser-5 phosphorylated CTD peptide, fluorescently labelled with FAM at the N-terminal end; remark: listed apart in the source
[5] = target: 2-repeats (14 amino acids) Ser-5 phosphorylated CTD peptide, fluorescently labelled with FAM at the N-terminal end; remark: listed apart in the source
[6] = target: 4-repeats (28 amino acids) Ser-5 phosphorylated CTD peptide, fluorescently labelled with FAM at the N-terminal end; remark: listed apart in the source
[7] = target: 4-repeats non-phosphorylated CTD peptide, fluorescently labelled with FAM at the N-terminal end

Ser-5-phosphorylated 28-mer CTD peptide (four heptad repeats), not labelled
apparent KD (KD') [1]: 2700 nM

heterotrimeric polymerase from human influenza B/Memphis/13/03, wild type (enzyme)
Kd [2]: 4200 nM | Kd [3]: 2900 nM

heterotrimeric polymerase from influenza A/little yellow-shouldered bat/Guatemala/060/2010 (H17N10), wild type (enzyme)
Kd [4]: 800 nM | Kd [5]: 6100 nM | Kd [6]: 900 nM | Kd [7]: > 10000 nM
